Assay results taken from patent US20130078216A1 (published 2013).
Each block holds one binder with its values, some of them ahead of it.

How the values were obtained:
[1] = target: T1, (His)6-Mouse ASGPR H1 (mouse, UniProt P34927 61-284); assay: BIAcore, antigen coated on a CM5 chip, dAb at 2.5 µM
T1 construct: Expressed in HEK293E, Ni-NTA purified; coated on a CM5 chip or biotinylated and captured on a streptavidin chip; The entry includes the His tag; also called mouse (His)6-ASGPR H1; mouse (His)6-ASGPR H1 extracellular domain
T1 sequence: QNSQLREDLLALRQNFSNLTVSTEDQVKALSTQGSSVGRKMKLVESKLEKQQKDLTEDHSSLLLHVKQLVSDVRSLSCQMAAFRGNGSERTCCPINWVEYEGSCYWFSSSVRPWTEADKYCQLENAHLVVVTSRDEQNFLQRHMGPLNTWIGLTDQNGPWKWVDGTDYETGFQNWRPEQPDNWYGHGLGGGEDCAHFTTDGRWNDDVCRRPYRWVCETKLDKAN
Procedure: (§1) FIG. 3: Vκ and VH dAbs selected against recombinant human and mouse ASGPR proteins binding specifically to the target antigen. Antigens were coated on the surface of a CM5 BlAcore chip and protein L purified Vκ dAb DOM26m-20 (top panel) or protein A purified VH dAb DOM26h-61 (bottom panel) was passed over the chip surface at a concentration of 2.5 μM using a flow-rate of […]. In the top panel binding of dAb to (His)₆-mouse ASGPR H1 ( )or human c-kit (His)₆ negative control antigen ( ) is shown. In the bottom panel dAb binding to (His)₆-human ASGPR H1 ( )or human c-kit (His)₆ negative control antigen ( ) is shown.
(§2) Screening by BlAcore took place using dAb supernatant expressed as above diluted 1:2 with HBS-P BlAcore running buffer. Each dAb was then injected over a blank flow cell and a flow cell coated with human or mouse (His)₆-ASGPR H1 on a CM5 chip. […] All unique dAb clones were expressed in 50 ml cultures (OnEX plus carbenicillin) overnight at 37° C. and purified on protein A (VH dAbs) or protein L (Vκ dAbs). Purified dAbs were passed over a CM5 BIAcore chip coated with either human or mouse (His)₆-ASGPR H1 at 20μg/ml (FIG. 3). Those dAbs that bound specifically to (His)₆-ASGPR H1 were then analysed in the flow cytometry cell binding assay (FIG. 4).

[2] = target: T2, human c-kit (His)6 negative control antigen (human, UniProt P10721 26-524, limits assumed); assay: BIAcore, antigens coated on a CM5 chip, human c-kit (His)6 as negative control antigen
T2 construct: Control antigen
T2 sequence (P10721 26-524 limits assumed): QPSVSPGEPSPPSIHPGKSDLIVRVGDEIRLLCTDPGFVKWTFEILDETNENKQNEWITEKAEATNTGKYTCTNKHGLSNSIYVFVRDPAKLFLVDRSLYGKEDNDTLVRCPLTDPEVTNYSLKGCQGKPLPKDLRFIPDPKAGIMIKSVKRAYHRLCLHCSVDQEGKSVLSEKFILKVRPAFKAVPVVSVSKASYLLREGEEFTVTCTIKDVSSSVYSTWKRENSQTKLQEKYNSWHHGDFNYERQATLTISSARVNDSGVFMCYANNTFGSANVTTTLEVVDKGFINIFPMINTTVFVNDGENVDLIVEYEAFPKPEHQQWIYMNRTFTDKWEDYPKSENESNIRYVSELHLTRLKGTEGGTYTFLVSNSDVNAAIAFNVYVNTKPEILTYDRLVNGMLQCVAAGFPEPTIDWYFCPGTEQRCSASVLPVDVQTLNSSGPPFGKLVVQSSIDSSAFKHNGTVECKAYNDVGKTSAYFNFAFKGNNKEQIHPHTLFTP
Procedure: as §1, §2

[3] = target: T1, (His)6-Mouse ASGPR H1; assay: BIAcore epitope mapping, 1 µM dAb over (His)6 mouse ASGPR H1 on a CM5 chip
Procedure: After coating a BlAcore CM5 chip with (His)₆ mouse ASGPR H1, protein A or protein L purified dAb proteins were injected one after the other and in combination over the same antigen surface. The resulting binding RUs were determined in order to see whether the maximal binding capacity of the chip by one dAb molecule can be exceeded by simultaneously injecting a second dAb onto the same antigen surface. If so, the second dAb clearly binds a different epitope compared to the first one. 1 μM concentrations of each dAb were injected at a flow rate of […], both in single injection and co-injection experiments. If injection of the second dAb in the presence of the first dAb reduced the observed binding to the chip surface by greater than 20% (in comparison to observed binding of the second dAb to the chip surface in the absence of the first dAb) both dAbs were assumed to bind overlapping epitopes within the antigen (FIG. 6). Based on results obtained in these experiments murine ASGPR specific dAb clones could be grouped according to epitopes bound within the antigen as shown in FIG. 12.

[4] = target: T3, (His)6-Human ASGPR H1 Lectin Domain (human, UniProt P07306 154-291); assay: BIAcore, biotinylated antigen on a streptavidin chip, 60 nM dAb, 40 µl/min
T3 construct: Biotinylated and immobilised on a streptavidin chip; also called human (His)6-ASGPR H1 lectin domain; human (His)6 lectin domain
T3 sequence: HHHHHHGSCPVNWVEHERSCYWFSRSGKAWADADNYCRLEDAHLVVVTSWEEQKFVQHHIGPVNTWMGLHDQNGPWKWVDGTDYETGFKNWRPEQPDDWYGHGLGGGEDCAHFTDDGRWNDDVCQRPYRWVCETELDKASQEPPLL

[5] = target: T4, (His)6-Human ASGPR H1 Stalk Domain (human, UniProt P07306 62-153); assay: BIAcore, biotinylated stalk domain on a streptavidin chip, flow 40 µl/min
T4 construct: Biotinylated and immobilised on a streptavidin chip; also called human (His)6-ASGPR H1 stalk domain; (His)6-human ASGPR H1 stalk domain residues glutamine 62-cysteine 153
T4 sequence: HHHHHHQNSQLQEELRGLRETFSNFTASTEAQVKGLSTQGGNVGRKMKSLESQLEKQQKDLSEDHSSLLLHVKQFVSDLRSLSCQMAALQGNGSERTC
Source text: (§3) To assay for potential dAb binding activity human (His)₆-ASGPR H1 stalk domain, human (His)₆-ASGPR H1 lectin domain and mouse (His)₆-ASGPR H1 extracellular domain were biotinylated and immobilised on a biacore Streptavidin chip surface.

[6] = target: T5, mouse ASGPR on the murine liver cell line Hepa1c1c7 (and on mouse liver in vivo) (mouse, UniProt P34927 1-284); assay: cell-based or functional assay
T5 sequence (looked up): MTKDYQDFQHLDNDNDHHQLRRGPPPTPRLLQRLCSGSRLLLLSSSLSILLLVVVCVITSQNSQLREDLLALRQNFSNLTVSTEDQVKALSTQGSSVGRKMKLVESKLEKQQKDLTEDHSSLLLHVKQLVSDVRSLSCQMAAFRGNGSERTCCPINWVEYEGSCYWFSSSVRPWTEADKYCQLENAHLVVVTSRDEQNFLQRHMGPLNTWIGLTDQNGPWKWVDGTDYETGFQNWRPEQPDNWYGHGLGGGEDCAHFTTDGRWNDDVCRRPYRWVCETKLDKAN

[7] = target: T6, (His)6-Human ASGPR H1 (human, UniProt P07306 62-291); assay: BIAcore, biotinylated (His)6-ASGPR H1 on a streptavidin chip, 62 nM dAb, 40 µl/min
T6 construct: Expressed in HEK293E, Ni-NTA purified; coated on a CM5 chip or biotinylated and captured on a streptavidin chip; The entry includes the His tag; also called human (His)6-ASGPR H1; Human (His)6 ASGPR H1 Q62-L291
T6 sequence: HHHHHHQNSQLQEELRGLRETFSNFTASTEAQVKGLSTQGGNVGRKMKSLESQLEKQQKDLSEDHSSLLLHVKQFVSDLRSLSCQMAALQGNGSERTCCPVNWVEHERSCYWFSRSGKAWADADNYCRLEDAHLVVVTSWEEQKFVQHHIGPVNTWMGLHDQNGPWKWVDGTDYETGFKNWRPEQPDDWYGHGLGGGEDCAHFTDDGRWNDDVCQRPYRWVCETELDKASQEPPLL
Procedure: ( )to human (His)₆-ASGPR H1. Biotinylated (His)₆-ASGPR H1 was immobilised on a Biacore streptavidin chip surface and 62 nM dAb passed over at a flow rate of 40 μl.min⁻¹.

[8] = target: T6, (His)6-Human ASGPR H1; assay: BIAcore, antigen coated on a CM5 chip, dAb at 2.5 µM
Procedure: as §1, §2

[9] = target: T3, (His)6-Human ASGPR H1 Lectin Domain; assay: BIAcore, biotinylated antigen on a streptavidin chip, FLAG-tagged dAb, 40 µl/min
Source text: as §3

[10] = target: T1, (His)6-Mouse ASGPR H1; assay: as above
Source text: as §3

binding result [1]: binds
binding result [2]: no binding (tested: 2.5 µM)
B1: DOM26m-20 (other, not shown: small tags and cut ends)
VL: DIQMTQSPSSLSASVGDRVTITCRASKYIGSDLYWYQQKPGKAPKLLIGGGSRLQSGVSSRFSGSGSGTDFTLTISSLQPEDFATYYCGQKWARPLTFGQGTKVEIKR
notes: human Vκ domain antibody (dAb) selected on mouse ASGPR H1; also called Vκ dAb DOM26m-20

binding result [3]: binds
B2: DOM26m-58 (other, not shown: small tags and cut ends)
VL: DIQMTQSPSSLSASVGDRVTITCRASQPIRNALTWYQQKPGKAPKLLIYRTSHLQSGVPSRFSGSGSGTDFTLTISSLQPEDFATYYCQQTWTMPLTFGQGTKVEIKR
notes: human Vκ domain antibody (dAb) selected on mouse ASGPR H1

binding result [3]: binds
B3: DOM26m-29 (other, not shown: small tags and cut ends)
VH: EVQLLESGGGLVQPGGSLRLSCAASGFTFEDSGMIWARQAPGKGLEWVSGIASEGSTTYYADSVKGRFTISRDNSKNTLYLQMNSLRAEDTAVYYCAKSGLSFDYWGQGTLVTVSS
notes: human VH domain antibody (dAb) selected on mouse ASGPR H1

binding result [8]: binds
binding result [2]: no binding (tested: 2.5 µM)
B6: DOM26h-61 (other, not shown: small tags and cut ends)
VH: EVQLLESGGGLVQPGGSLRLSCAASGFTFSTYPMHWARQAPGKGLEWVSSISPSGDSTYYADSVKGRFTISRDNSKNTLYLQMNSLRAEDTAVYYCAKNALRFDYWGQGTLVTVSS
notes: human VH domain antibody (dAb); also called VH dAb DOM26h-61

binding result [3]: binds
B7: DOM26m-54 (other, not shown: small tags and cut ends)
VL: DIQMTQSPSSLSASVGDRVTITCRASLNIDTDLVWYQQKPGKAPKLLIAGWSGLQSGVPSRFSGSGSGTDFTLTISSLQPEDFATYYCGQFAREPFTFGQGTKVEIKR
notes: as for B2

binding result [3]: binds
B11: DOM26m-7 (other, not shown: small tags and cut ends)
VH: EVQLLESGGGLVQPGGSLRLSCAASGFTFDDYEMGWVRQAPGKGLEWVSLISAQGRVTYYADSVKGRFTISRDNSKNTLYLQMNSLRAEDTAVYYCAKNSPSYLLNFDYWGQGTLVTVSS
notes: as for B3

Further lines, the binder ahead of its results:

B4: DOM26h-196-61 (other, not shown: small tags and cut ends)
VH: EVQLLESGGGLVQPGGSLRLSCAASGFTFEKYAMAWVRQAPGKGLEWVSRISARGVTTYYADSVKGRFTISRDNSKNTLYLQMNSLRAEDTAVYYCAKHKRHEHTRFDSWGQGTLVTVSS
binding result [4]: binds
binding result [5]: no binding (tested: 60 nM)
counts in the liver (percentage of injected dose) 3 hours after injection of DOTA-NHS conjugated, 111In labelled dAb in balb/c mice, against VH dummy 2 [6]: ~35 fold
binding result [7]: binds

B5: DOM26h-196 (other, not shown: small tags and cut ends)
VH: EVQLLESGGGLVQPGGSLRLSCAASGFTFEKYAMAWVRQAPGKGLEWVSRISMAGMTTYYADSVKGRFTISRDNSKNTLYLQMNSLRAEDTAVYYCAKHKKSAHTRFDSWGQGTLVTVSS
notes: human VH domain antibody (dAb)
binding result [7]: binds

B8: DOM26h-161-84 (other, not shown: small tags and cut ends)
VL: DIQMTQSPSSLSASVGDRVTITCRASQAIGRWLLWYQQKPGKAPKLLIGPGSRLRSGVPSRFSGSGSGTDFTLTISSLQPEDFVTYYCQQAYAWPPTFGQGTKVEIKR
binding result [5]: no binding
counts in the liver (percentage of injected dose) 3 hours after injection of DOTA-NHS conjugated, 111In labelled dAb in balb/c mice, against Vκ dummy [6]: 46 fold
binding result [9]: binds

B9: DOM26m-50 (other, not shown: small tags and cut ends)
VL: DIQMTQSPSSLSASVGDRVTITCRASISIYEHLNWYQQKPGKAPTLLIWDSSGLQSGVPSRFSGSGSGTDFTLTISSLQPEDFATYYCVQHHSHPPTFGQGTKVEIKR
notes: as for B2
binding result [3]: binds

B10: DOM26h-220-1 (other, not shown: small tags and cut ends)
VH: EVQLLESGGGLVQPGGSLRLSCAASGFTFEDYGMGWVRQAPGKGLEWVSAIGRNGSQTYYADSVKGRFTISRDNSKNTLYLQMNSLRAEDTAVYYCAKLRRGRGLNTFTLDYWGQGTLVTVSS
binding result [5]: no binding
binding result [9]: binds
binding result [10]: binds

B12: DOM26h-210-2 (other, not shown: small tags and cut ends)
VH: ELQLLEFGGGLVQPGGSLRLSCTTSGFTFSRYTMGWVRQAPGKGLEWVSAIGPPGSNTYYADSVKGRFTISRDNSKNTLYLQMNSLRAEDTAVYYCAKWVMLRGRFDYWGQGTLVTVSS
binding result [5]: no binding
binding result [9]: binds
binding result [10]: binds

B13: DOM26m-33 carrying the point mutation S116C, DOTA-Maleimide conjugated and 111In labelled (other)
VH: EVQLLESGGGLVQPGGSLRLSCAASGFTFAKYDMIWVRQAPGKGLEWVSGINHSGSRTYYADSVKGRFTISRDNSKNMLYLQMNSLRAEDTAVYYCAKSGSSFDYWGQGTLVTVSC
modifications: DOTA-Maleimide on the C-terminal cysteine (S116C), labelled with 111In
counts in the liver (percent injected dose) 3 hours after intravenous injection of 111In labelled dAb in balb/c mice, against VH dummy 2 [6]: 4.9 fold
counts in the liver (percent injected dose) 3 hours after intravenous injection of 111In labelled dAb in balb/c mice, against Vκ dummy [6]: 12.4 fold
